Measured values from patent US20260184766A1 (priority 2022, published 2026).

Columns and labels:
[1] = system: SARS CoV-2 "South African" B.1.351 variant Spike protein
[2] = system: pseudotyped virus carrying B.1.351 or "SA" variant (beta lineage) spike; assay type: cell-based, SARS-CoV-2; details: read-out: Virus Neutralization Pseudovirus (nM) Beta

Sequence	stability conferred to the knob sequence by N- and C-terminal residues, in words [1]	EC50 [2] [nM]
DYTCPDGYEHTCGCIGGCGCKRSACIGALCCQASLGGWLSDMP [G3-C]	improved stability	–
GMTCPDGYEHTCGCIGGCGCKRSACIGALCCQASLGGWLSDRS [G3-Z]	improved stability	–
HWTCPDGYEHTCGCIGGCGCKRSACIGALCCQASLGGWLSDSF [2G3 knob HWSF]	improved stability	7.82 ± 1.59
ISTCPDGYEHTCGCIGGCGCKRSACIGALCCQASLGGWLSDTV [2G3 knob ISTV]	improved stability	20.9 ± 7.95
LVTCPDGYEHTCGCIGGCGCKRSACIGALCCQASLGGWLSDIP [G3-G]	improved stability	–
SVTCPDGYEHTCGCIGGCGCKRSACIGALCCQASLGGWLSDYI [G3-E]	improved stability	–
TCPDGYEHTCGCIGGCGCKRSACIGALCCQASLGGWLSD [2G3 Knob]	–	15.7 ± 2.61
